Experimental data from the supplement of paper PMC10567573.

B1: LOXL2 (parent)
chain: RLLRFSSQIHNNGQSDFRPKNGRH
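Also: lentivirally expressed fusions sorted by FACS into six bins by GFP to DsRed ratio, PSI derived from sequencing read proportions per bin multiplied by bin number.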

Variants of: B1
Test: protein stability index of a GFP-peptide fusion (GPS, HEK-293T) (PSI 1-6); higher = more stable
Conditions: c terminus: a fixed tail appended
With RLLLFSSQIHNNGQSDFRPKNGRH [R4L] the protein stability index was 2.36. Variant RLLFFSSQIHNNGQSDFRPKNGRH [R4F] has a protein stability index of 2.32. With RLLEFSSQIHNNGQSDFRPKNGRH [R4E] the protein stability index was 2.87. Variant RLLTFSSQIHNNGQSDFRPKNGRH [R4T] has a protein stability index of 3.09. Work on RLLIFSSQIHNNGQSDFRPKNGRH [R4I] yielded a protein stability index of 2.48. For RLLVFSSQIHNNGQSDFRPKNGRH [R4V], the protein stability index was 2.62. With RLLAFSSQIHNNGQSDFRPKNGRH [R4A] the protein stability index was 2.87. In the case of RLLDFSSQIHNNGQSDFRPKNGRH [R4D], the protein stability index is reported as 3.16. RLLHFSSQIHNNGQSDFRPKNGRH [R4H] showed a protein stability index of 2.74. For RLLCFSSQIHNNGQSDFRPKNGRH [R4C], the protein stability index was 2.87. With RLLWFSSQIHNNGQSDFRPKNGRH [R4W] the protein stability index was 2.15. Variant RLLMFSSQIHNNGQSDFRPKNGRH [R4M] has a protein stability index of 2.81. With RLLNFSSQIHNNGQSDFRPKNGRH [R4N] the protein stability index was 3.35. In the case of RLLQFSSQIHNNGQSDFRPKNGRH [R4Q], the protein stability index is reported as 2.57. RLLSFSSQIHNNGQSDFRPKNGRH [R4S] showed a protein stability index of 2.79. Work on RLLGFSSQIHNNGQSDFRPKNGRH [R4G] yielded a protein stability index of 3.51. RLLKFSSQIHNNGQSDFRPKNGRH [R4K] showed a protein stability index of 2.27. For RLLPFSSQIHNNGQSDFRPKNGRH [R4P], the protein stability index was 3.86. RLLYFSSQIHNNGQSDFRPKNGRH [R4Y] gave a protein stability index of 2.66. For RLGRFSSQIHNNGQSDFRPKNGRH [L3G], the protein stability index was 3.63. Variant RLWRFSSQIHNNGQSDFRPKNGRH [L3W] has a protein stability index of 2.64. With RLTRFSSQIHNNGQSDFRPKNGRH [L3T] the protein stability index was 3.95. For RLIRFSSQIHNNGQSDFRPKNGRH [L3I], the protein stability index was 3.14. Work on RLYRFSSQIHNNGQSDFRPKNGRH [L3Y] yielded a protein stability index of 3.44. In the case of RLNRFSSQIHNNGQSDFRPKNGRH [L3N], the protein stability index is reported as 3.98. RLSRFSSQIHNNGQSDFRPKNGRH [L3S] gave a protein stability index of 3.77. With RLCRFSSQIHNNGQSDFRPKNGRH [L3C] the protein stability index was 2.88. Variant RLHRFSSQIHNNGQSDFRPKNGRH [L3H] has a protein stability index of 3.79. RLRRFSSQIHNNGQSDFRPKNGRH [L3R] showed a protein stability index of 3.81. Variant RLARFSSQIHNNGQSDFRPKNGRH [L3A] has a protein stability index of 3.59. For RLFRFSSQIHNNGQSDFRPKNGRH [L3F], the protein stability index was 3.05. RLDRFSSQIHNNGQSDFRPKNGRH [L3D] showed a protein stability index of 3.98. RLVRFSSQIHNNGQSDFRPKNGRH [L3V] gave a protein stability index of 3.44. RLERFSSQIHNNGQSDFRPKNGRH [L3E] gave a protein stability index of 4.34. For RLMRFSSQIHNNGQSDFRPKNGRH [L3M], the protein stability index was 3.37. Work on RLPRFSSQIHNNGQSDFRPKNGRH [L3P] yielded a protein stability index of 3.91. RLKRFSSQIHNNGQSDFRPKNGRH [L3K] gave a protein stability index of 3.84. In the case of RLQRFSSQIHNNGQSDFRPKNGRH [L3Q], the protein stability index is reported as 3.99. With RLLRFNSQIHNNGQSDFRPKNGRH [S6N] the protein stability index was 3.03. For RLLRFMSQIHNNGQSDFRPKNGRH [S6M], the protein stability index was 2.51. RLLRFESQIHNNGQSDFRPKNGRH [S6E] gave a protein stability index of 3.62. With RLLRFQSQIHNNGQSDFRPKNGRH [S6Q] the protein stability index was 2.71. RLLRFASQIHNNGQSDFRPKNGRH [S6A] showed a protein stability index of 2.65. RLLRFISQIHNNGQSDFRPKNGRH [S6I] showed a protein stability index of 3.34. Variant RLLRFDSQIHNNGQSDFRPKNGRH [S6D] has a protein stability index of 3.81. With RLLRFFSQIHNNGQSDFRPKNGRH [S6F] the protein stability index was 2.09. RLLRFWSQIHNNGQSDFRPKNGRH [S6W] gave a protein stability index of 2.56. Work on RLLRFVSQIHNNGQSDFRPKNGRH [S6V] yielded a protein stability index of 3.85. With RLLRFPSQIHNNGQSDFRPKNGRH [S6P] the protein stability index was 3.41. With RLLRFHSQIHNNGQSDFRPKNGRH [S6H] the protein stability index was 2.37. RLLRFLSQIHNNGQSDFRPKNGRH [S6L] gave a protein stability index of 2.45. RLLRFYSQIHNNGQSDFRPKNGRH [S6Y] gave a protein stability index of 2.89. Work on RLLRFGSQIHNNGQSDFRPKNGRH [S6G] yielded a protein stability index of 2.64. RLLRFCSQIHNNGQSDFRPKNGRH [S6C] gave a protein stability index of 3.08. Variant RLLRFKSQIHNNGQSDFRPKNGRH [S6K] has a protein stability index of 3.05. With RLLRFRSQIHNNGQSDFRPKNGRH [S6R] the protein stability index was 2.99. With RLLRFTSQIHNNGQSDFRPKNGRH [S6T] the protein stability index was 2.46. For RFLRFSSQIHNNGQSDFRPKNGRH [L2F], the protein stability index was 2.82. RELRFSSQIHNNGQSDFRPKNGRH [L2E] showed a protein stability index of 3.98. For RTLRFSSQIHNNGQSDFRPKNGRH [L2T], the protein stability index was 4.69. Work on RGLRFSSQIHNNGQSDFRPKNGRH [L2G] yielded a protein stability index of 4.6. In the case of RRLRFSSQIHNNGQSDFRPKNGRH [L2R], the protein stability index is reported as 4.07. Work on RMLRFSSQIHNNGQSDFRPKNGRH [L2M] yielded a protein stability index of 3.27. For RWLRFSSQIHNNGQSDFRPKNGRH [L2W], the protein stability index was 2.71. RYLRFSSQIHNNGQSDFRPKNGRH [L2Y] gave a protein stability index of 3.35. Variant RDLRFSSQIHNNGQSDFRPKNGRH [L2D] has a protein stability index of 4.51. With RVLRFSSQIHNNGQSDFRPKNGRH [L2V] the protein stability index was 3.52. In the case of RSLRFSSQIHNNGQSDFRPKNGRH [L2S], the protein stability index is reported as 4.59. In the case of RQLRFSSQIHNNGQSDFRPKNGRH [L2Q], the protein stability index is reported as 4.12. With RHLRFSSQIHNNGQSDFRPKNGRH [L2H] the protein stability index was 4.21. RKLRFSSQIHNNGQSDFRPKNGRH [L2K] gave a protein stability index of 3.91. Variant RPLRFSSQIHNNGQSDFRPKNGRH [L2P] has a protein stability index of 4.63. Work on RALRFSSQIHNNGQSDFRPKNGRH [L2A] yielded a protein stability index of 3.68. In the case of RCLRFSSQIHNNGQSDFRPKNGRH [L2C], the protein stability index is reported as 3.82. RNLRFSSQIHNNGQSDFRPKNGRH [L2N] showed a protein stability index of 4.58. RILRFSSQIHNNGQSDFRPKNGRH [L2I] showed a protein stability index of 3.28. Variant QLLRFSSQIHNNGQSDFRPKNGRH [R1Q] has a protein stability index of 2.48. PLLRFSSQIHNNGQSDFRPKNGRH [R1P] showed a protein stability index of 4.01. DLLRFSSQIHNNGQSDFRPKNGRH [R1D] gave a protein stability index of 2.97. For VLLRFSSQIHNNGQSDFRPKNGRH [R1V], the protein stability index was 1.89. TLLRFSSQIHNNGQSDFRPKNGRH [R1T] gave a protein stability index of 2.57. Variant ELLRFSSQIHNNGQSDFRPKNGRH [R1E] has a protein stability index of 2.41. For GLLRFSSQIHNNGQSDFRPKNGRH [R1G], the protein stability index was 3.12. Variant FLLRFSSQIHNNGQSDFRPKNGRH [R1F] has a protein stability index of 1.17. In the case of MLLRFSSQIHNNGQSDFRPKNGRH [R1M], the protein stability index is reported as 2.66. In the case of SLLRFSSQIHNNGQSDFRPKNGRH [R1S], the protein stability index is reported as 2.58. For YLLRFSSQIHNNGQSDFRPKNGRH [R1Y], the protein stability index was 1.71. With HLLRFSSQIHNNGQSDFRPKNGRH [R1H] the protein stability index was 2.67. CLLRFSSQIHNNGQSDFRPKNGRH [R1C] gave a protein stability index of 2.78. ILLRFSSQIHNNGQSDFRPKNGRH [R1I] showed a protein stability index of 1.78. For ALLRFSSQIHNNGQSDFRPKNGRH [R1A], the protein stability index was 2.41. WLLRFSSQIHNNGQSDFRPKNGRH [R1W] gave a protein stability index of 1.65. NLLRFSSQIHNNGQSDFRPKNGRH [R1N] gave a protein stability index of 2.65. In the case of LLLRFSSQIHNNGQSDFRPKNGRH [R1L], the protein stability index is reported as 1.72.
